Results taken from patent US20180155451A1 (published 2018).

T1: FcγRIIb extracellular domain with C-terminal His tag (human, UniProt P31994 43-217)
T1 construct: extracellular domain; expressed in FreeStyle293 cells; analyte in the Biacore assay; also called FcgRIIb; 2b; not shown: His tag at the C terminus
T1 sequence (looked up): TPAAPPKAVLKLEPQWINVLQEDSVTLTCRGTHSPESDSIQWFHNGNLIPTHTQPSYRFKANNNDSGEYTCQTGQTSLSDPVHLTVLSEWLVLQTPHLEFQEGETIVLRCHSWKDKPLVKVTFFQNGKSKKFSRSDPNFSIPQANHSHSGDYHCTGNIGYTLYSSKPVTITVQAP

B1: GpH7-B3 variant I332_06M/GpL16-k0 (antibody, human IgG1, kappa)
heavy: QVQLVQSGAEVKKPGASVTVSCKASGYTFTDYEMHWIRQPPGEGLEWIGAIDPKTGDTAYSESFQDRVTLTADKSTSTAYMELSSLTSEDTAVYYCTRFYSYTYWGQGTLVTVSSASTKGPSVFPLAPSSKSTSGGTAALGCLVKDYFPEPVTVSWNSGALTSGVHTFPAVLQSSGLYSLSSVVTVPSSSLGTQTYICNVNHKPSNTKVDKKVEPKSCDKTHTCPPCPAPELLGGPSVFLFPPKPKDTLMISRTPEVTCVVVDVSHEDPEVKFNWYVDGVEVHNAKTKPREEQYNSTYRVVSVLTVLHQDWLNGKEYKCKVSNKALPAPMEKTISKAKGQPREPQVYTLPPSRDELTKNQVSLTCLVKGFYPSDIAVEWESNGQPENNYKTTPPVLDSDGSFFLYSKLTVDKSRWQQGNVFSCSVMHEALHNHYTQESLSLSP
light: DIVMTQSPLSLPVTPGEPASISCQASESLVHSNRNTYLHWYLQKPGQSPQLLIYKVSNRFSGVPDRFSGSGSGTDFTLKISRVEAEDVGVYYCSQNTHVPPTFGQGTKVEIERTVAAPSVFIFPPSDEQLKSGTASVVCLLNNFYPREAKVQWKVDNALQSGNSQESVTEQDSKDSTYSLSSTLTLSKADYEKHKVYACEVTHQGLSSPVTKSFNRGEC
notes: homodimerized; mutation in both H chains; also called Ho Ab I332_06M
B2: GpH7-B3 variant H268_13S/GpL16-k0 (antibody, human IgG1, kappa)
heavy: not shown
light: B1 light
notes: homodimerized; mutation in both H chains; also called Ho Ab H268_13S
B3: GpH7-A5/GpH7-B3 variant V266_19Q/GpL16-k0 (antibody, human IgG1, kappa)
heavy 1: not shown
heavy 2: not shown
light: B1 light
notes: mutation in one H chain only; also called He Ab V266_19Q; V266Q
B4: GpH7-B3 variant G237_20W/GpL16-k0 (antibody, human IgG1, kappa)
heavy: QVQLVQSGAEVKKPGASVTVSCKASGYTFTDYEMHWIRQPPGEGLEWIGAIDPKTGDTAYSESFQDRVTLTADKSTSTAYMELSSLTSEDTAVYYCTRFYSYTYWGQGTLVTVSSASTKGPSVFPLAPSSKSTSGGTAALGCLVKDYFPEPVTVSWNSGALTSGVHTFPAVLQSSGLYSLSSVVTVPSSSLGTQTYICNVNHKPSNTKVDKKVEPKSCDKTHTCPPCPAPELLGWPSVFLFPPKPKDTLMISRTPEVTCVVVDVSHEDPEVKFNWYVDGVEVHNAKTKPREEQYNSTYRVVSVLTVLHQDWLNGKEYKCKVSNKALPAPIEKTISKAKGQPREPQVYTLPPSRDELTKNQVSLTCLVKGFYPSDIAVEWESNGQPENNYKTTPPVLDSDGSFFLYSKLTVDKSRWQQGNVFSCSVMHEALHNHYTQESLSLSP
light: B1 light
notes: homodimerized; mutation in both H chains; also called Ho Ab G237_20W
B5: GpH7-B3 variant K326_20W/GpL16-k0 (antibody, human IgG1, kappa)
heavy: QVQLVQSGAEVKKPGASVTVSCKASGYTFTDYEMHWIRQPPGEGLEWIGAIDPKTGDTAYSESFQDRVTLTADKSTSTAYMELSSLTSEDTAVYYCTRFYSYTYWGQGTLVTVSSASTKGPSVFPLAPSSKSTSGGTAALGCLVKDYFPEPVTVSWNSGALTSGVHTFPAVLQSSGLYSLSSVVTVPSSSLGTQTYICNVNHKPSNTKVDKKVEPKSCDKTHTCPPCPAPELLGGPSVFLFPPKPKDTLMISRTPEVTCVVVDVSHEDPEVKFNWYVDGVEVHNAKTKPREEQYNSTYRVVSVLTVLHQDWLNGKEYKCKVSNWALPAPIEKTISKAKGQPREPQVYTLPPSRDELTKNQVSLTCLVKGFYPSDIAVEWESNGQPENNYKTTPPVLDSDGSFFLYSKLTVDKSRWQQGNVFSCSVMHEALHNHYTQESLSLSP
light: B1 light
notes: homodimerized; mutation in both H chains; also called Ho Ab K326_20W
B6: GpH7-A5/GpH7-B3 variant S337_01G/GpL16-k0 (antibody, human IgG1, kappa)
heavy 1: not shown
heavy 2: not shown
light: B1 light
notes: mutation in one H chain only; also called He Ab S337_01G; S337G
B7: GpH7-A5/GpH7-B3 variant T335_07I/GpL16-k0 (antibody, human IgG1, kappa)
heavy 1: not shown
heavy 2: not shown
light: B1 light
notes: mutation in one H chain only; also called He Ab T335_07I; T335I
B8: GpH7-A5/GpH7-B3 variant S337_03V/GpL16-k0 (antibody, human IgG1, kappa)
heavy 1: not shown
heavy 2: not shown
light: B1 light
notes: mutation in one H chain only; also called He Ab S337_03V; S337V
B9: GpH7-B3 variant K326_06M/GpL16-k0 (antibody, human IgG1, kappa)
heavy: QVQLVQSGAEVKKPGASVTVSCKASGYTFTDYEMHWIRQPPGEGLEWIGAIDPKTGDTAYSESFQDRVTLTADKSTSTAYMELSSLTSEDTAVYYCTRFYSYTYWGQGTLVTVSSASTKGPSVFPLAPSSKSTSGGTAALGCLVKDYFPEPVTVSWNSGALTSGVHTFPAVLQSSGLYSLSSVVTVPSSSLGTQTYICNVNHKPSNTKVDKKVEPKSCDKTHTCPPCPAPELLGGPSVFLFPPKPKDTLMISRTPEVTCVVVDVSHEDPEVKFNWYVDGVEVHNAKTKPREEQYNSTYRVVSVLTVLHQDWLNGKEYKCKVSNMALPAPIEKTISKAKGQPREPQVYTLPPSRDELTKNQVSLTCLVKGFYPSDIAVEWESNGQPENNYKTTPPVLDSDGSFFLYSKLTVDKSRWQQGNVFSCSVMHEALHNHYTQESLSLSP
light: B1 light
notes: homodimerized; mutation in both H chains; also called Ho Ab K326_06M
B10: GpH7-A5/GpH7-B3 variant T335_15Y/GpL16-k0 (antibody, human IgG1, kappa)
heavy 1: not shown
heavy 2: not shown
light: B1 light
notes: mutation in one H chain only; also called He Ab T335_15Y; T335Y
B11: GpH7-A5/GpH7-B3 variant S337_19Q/GpL16-k0 (antibody, human IgG1, kappa)
heavy 1: not shown
heavy 2: not shown
light: B1 light
notes: mutation in one H chain only; also called He Ab S337_19Q; S337Q
B12: GpH7-B3 variant A327_10E/GpL16-k0 (antibody, human IgG1, kappa)
heavy: not shown
light: B1 light
notes: homodimerized; mutation in both H chains; also called Ho Ab A327_10E
B13: GpH7-B3 variant K326_15Y/GpL16-k0 (antibody, human IgG1, kappa)
heavy: not shown
light: B1 light
notes: homodimerized; mutation in both H chains; also called Ho Ab K326_15Y
B14: GpH7-A5/GpH7-B3 variant S337_02A/GpL16-k0 (antibody, human IgG1, kappa)
heavy 1: not shown
heavy 2: not shown
light: B1 light
notes: mutation in one H chain only; also called He Ab S337_02A; S337A
B15: GpH7-B3 variant H268_10E/GpL16-k0 (antibody, human IgG1, kappa)
heavy: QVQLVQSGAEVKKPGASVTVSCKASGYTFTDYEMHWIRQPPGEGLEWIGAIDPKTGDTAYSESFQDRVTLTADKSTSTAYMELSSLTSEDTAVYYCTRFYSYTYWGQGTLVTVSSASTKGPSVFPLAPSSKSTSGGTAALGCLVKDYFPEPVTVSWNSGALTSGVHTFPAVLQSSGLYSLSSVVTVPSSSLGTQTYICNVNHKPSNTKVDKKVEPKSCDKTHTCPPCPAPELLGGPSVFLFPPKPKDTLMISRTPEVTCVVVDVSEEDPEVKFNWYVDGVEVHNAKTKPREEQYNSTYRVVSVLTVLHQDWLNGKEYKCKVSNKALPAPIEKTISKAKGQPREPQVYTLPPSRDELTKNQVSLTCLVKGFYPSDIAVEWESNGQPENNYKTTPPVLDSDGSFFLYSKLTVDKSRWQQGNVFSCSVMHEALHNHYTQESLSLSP
light: B1 light
notes: homodimerized; mutation in both H chains; also called Ho Ab H268_10E
B16: GpH7-B3 variant H268_09D/GpL16-k0 (antibody, human IgG1, kappa)
heavy: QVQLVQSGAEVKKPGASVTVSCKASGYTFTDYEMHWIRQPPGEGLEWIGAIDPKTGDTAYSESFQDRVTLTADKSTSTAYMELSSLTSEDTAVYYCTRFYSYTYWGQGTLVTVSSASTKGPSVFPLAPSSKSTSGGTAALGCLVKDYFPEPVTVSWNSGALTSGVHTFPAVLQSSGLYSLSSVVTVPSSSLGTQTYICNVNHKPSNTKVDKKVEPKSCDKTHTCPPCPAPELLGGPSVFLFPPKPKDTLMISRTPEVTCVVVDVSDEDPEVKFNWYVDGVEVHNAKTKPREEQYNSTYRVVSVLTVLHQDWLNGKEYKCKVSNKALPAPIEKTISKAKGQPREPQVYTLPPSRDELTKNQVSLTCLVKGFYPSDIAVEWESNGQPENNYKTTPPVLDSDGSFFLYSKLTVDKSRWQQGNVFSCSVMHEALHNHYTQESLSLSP
light: B1 light
notes: homodimerized; mutation in both H chains; also called Ho Ab H268_09D
B17: GpH7-B3 variant K326_04F/GpL16-k0 (antibody, human IgG1, kappa)
heavy: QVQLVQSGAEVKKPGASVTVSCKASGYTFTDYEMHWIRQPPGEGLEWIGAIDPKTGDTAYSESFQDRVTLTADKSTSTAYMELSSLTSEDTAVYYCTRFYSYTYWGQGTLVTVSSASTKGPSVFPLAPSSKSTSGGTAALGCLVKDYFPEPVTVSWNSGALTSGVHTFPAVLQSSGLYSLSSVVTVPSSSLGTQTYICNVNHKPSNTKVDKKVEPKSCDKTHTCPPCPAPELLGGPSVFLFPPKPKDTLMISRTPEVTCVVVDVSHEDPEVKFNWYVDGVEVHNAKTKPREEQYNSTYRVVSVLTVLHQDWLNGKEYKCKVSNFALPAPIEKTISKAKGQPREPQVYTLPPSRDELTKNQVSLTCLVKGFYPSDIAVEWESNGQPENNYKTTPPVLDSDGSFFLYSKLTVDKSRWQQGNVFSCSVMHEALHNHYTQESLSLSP
light: B1 light
notes: homodimerized; mutation in both H chains; also called Ho Ab K326_04F
B18: GpH7-B3 variant I336_08L/GpL16-k0 (antibody, human IgG1, kappa)
heavy: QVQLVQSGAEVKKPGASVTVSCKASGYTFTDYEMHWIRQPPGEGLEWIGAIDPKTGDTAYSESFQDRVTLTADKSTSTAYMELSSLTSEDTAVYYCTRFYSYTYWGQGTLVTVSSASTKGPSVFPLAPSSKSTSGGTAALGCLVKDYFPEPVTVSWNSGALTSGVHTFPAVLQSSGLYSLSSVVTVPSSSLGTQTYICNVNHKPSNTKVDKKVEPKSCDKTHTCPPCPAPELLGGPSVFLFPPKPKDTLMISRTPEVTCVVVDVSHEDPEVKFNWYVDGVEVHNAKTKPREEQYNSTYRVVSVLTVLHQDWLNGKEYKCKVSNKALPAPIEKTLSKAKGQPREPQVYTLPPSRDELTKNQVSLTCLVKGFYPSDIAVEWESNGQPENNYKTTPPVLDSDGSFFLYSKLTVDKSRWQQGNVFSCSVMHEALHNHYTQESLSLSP
light: B1 light
notes: homodimerized; mutation in both H chains; also called Ho Ab I336_08L
B19: GpH7-A5/GpH7-B3 variant S337_06M/GpL16-k0 (antibody, human IgG1, kappa)
heavy 1: not shown
heavy 2: not shown
light: B1 light
notes: mutation in one H chain only; also called He Ab S337_06M; S337M
B20: GpH7-B3 variant H268_18N/GpL16-k0 (antibody, human IgG1, kappa)
heavy: not shown
light: B1 light
notes: homodimerized; mutation in both H chains; also called Ho Ab H268_18N
B21: GpH7-A5/GpH7-B3 variant S337_04F/GpL16-k0 (antibody, human IgG1, kappa)
heavy 1: not shown
heavy 2: not shown
light: B1 light
notes: mutation in one H chain only; also called He Ab S337_04F; S337F
B22: GpH7-B3 variant A330_01G/GpL16-k0 (antibody, human IgG1, kappa)
heavy: not shown
light: B1 light
notes: homodimerized; mutation in both H chains; also called Ho Ab A330_01G
B23: GpH7-A5/GpH7-B3 variant S337_15Y/GpL16-k0 (antibody, human IgG1, kappa)
heavy 1: not shown
heavy 2: not shown
light: B1 light
notes: mutation in one H chain only; also called He Ab S337_15Y; S337Y
B24: GpH7-A5/GpH7-B3 variant S337_12R/GpL16-k0 (antibody, human IgG1, kappa)
heavy 1: not shown
heavy 2: not shown
light: B1 light
notes: mutation in one H chain only; also called He Ab S337_12R; S337R
B25: GpH7-B3 variant G236_09D/GpL16-k0 (antibody, human IgG1, kappa)
heavy: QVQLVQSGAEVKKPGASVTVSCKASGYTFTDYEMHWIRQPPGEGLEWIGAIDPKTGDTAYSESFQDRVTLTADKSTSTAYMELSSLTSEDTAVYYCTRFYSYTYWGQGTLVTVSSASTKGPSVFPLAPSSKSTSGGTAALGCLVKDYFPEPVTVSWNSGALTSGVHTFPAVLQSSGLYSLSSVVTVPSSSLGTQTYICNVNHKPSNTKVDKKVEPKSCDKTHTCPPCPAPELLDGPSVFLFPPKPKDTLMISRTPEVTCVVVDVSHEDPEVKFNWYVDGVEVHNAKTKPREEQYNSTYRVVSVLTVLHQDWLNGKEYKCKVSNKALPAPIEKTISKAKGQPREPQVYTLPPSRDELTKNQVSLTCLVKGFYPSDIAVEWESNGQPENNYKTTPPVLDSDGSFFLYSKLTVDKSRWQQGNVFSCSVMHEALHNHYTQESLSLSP
light: B1 light
notes: homodimerized; mutation in both H chains; also called Ho Ab G236_09D
B26: GpH7-A5/GpH7-B3 variant T335_11K/GpL16-k0 (antibody, human IgG1, kappa)
heavy 1: not shown
heavy 2: not shown
light: B1 light
notes: mutation in one H chain only; also called He Ab T335_11K; T335K
B27: GpH7-B3 variant K326_19Q/GpL16-k0 (antibody, human IgG1, kappa)
heavy: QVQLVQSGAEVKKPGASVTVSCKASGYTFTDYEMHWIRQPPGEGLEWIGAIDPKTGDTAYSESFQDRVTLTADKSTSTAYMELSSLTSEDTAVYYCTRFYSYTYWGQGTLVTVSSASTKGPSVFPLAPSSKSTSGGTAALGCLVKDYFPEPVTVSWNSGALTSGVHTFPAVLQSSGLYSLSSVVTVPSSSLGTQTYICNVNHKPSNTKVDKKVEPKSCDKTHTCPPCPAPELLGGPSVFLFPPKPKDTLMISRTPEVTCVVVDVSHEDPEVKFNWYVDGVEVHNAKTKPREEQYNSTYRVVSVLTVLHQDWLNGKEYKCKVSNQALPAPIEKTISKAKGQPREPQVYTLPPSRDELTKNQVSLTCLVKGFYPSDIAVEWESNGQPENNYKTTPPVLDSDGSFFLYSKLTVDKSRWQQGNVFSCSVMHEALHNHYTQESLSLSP
light: B1 light
notes: homodimerized; mutation in both H chains; label printed K326_190, read as K326_19Q; also called Ho Ab K326_19Q
B28: GpH7-A5/GpH7-B3 variant T335_10E/GpL16-k0 (antibody, human IgG1, kappa)
heavy 1: not shown
heavy 2: not shown
light: B1 light
notes: mutation in one H chain only; also called He Ab T335_10E; T335E
B29: GpH7-B3 variant K326_16H/GpL16-k0 (antibody, human IgG1, kappa)
heavy: not shown
light: B1 light
notes: homodimerized; mutation in both H chains; also called Ho Ab K326_16H

Legend:
[1] = molecular target: T1, FcγRIIb extracellular domain with …; test: SPR (Biacore), captured antibody, FcγRIIb analyte; binding relative to GpH7-B3/GpL16-k0 = 100
[2] = molecular target: T2, FcγRIa extracellular domain with C-terminal His tag (human, UniProt P12314 16-292); test: SPR Biacore, relative FcγRIa binding vs GpH7-A5/GpH7-B3/GpL16-k0
T2 construct: extracellular domain; also called FcgRI; CD64; not shown: His tag at the C terminus
T2 sequence (P12314 16-292): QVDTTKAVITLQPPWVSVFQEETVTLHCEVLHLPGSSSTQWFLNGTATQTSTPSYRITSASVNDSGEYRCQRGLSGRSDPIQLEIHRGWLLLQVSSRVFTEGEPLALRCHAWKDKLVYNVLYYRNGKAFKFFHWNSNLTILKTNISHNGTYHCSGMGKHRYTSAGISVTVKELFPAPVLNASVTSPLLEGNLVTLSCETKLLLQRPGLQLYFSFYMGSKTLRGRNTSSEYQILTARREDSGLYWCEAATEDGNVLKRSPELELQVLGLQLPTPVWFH

Binder	Ho/Con_2b [1]	He/Con_1a [2]
B1	106 % of control	
B2	186 % of control	
B3		100 % of HeCon Ab (=100)
B4	166 % of control	
B5	132 % of control	
B6		107 % of HeCon Ab (=100)
B7		109 % of HeCon Ab (=100)
B8		107 % of HeCon Ab (=100)
B9	193 % of control	
B10		107 % of HeCon Ab (=100)
B11		105 % of HeCon Ab (=100)
B12	148 % of control	
B13	162 % of control	
B14		106 % of HeCon Ab (=100)
B15	275 % of control	
B16	298 % of control	
B17	160 % of control	
B18	103 % of control	
B19		107 % of HeCon Ab (=100)
B20	179 % of control	
B21		106 % of HeCon Ab (=100)
B22	102 % of control	
B23		104 % of HeCon Ab (=100)
B24		106 % of HeCon Ab (=100)
B25	207 % of control	
B26		111 % of HeCon Ab (=100)
B27	163 % of control	
B28		109 % of HeCon Ab (=100)
B29	131 % of control	
